Drawing on PMC2880590, this text covers IC50 of inhibition of ADP-induced platelet aggregation in human platelet-rich plasma (blocks fibrinogen binding to αIIbβ3) and Kd for five substances.

The target of test [1] is activated platelet integrin αIIbβ3 (human (endogenous in platelets)) (UniProt P08514).
In test [2] the target is vicrostatin (VCN) (Agkistrodon contortrix contortrix (southern copperhead venom gland cDNA library) | not stated). The experiment in a line: fluorescence polarisation; differing concentrations of purified soluble integrin with a constant amount of FITC-labelled CN or VCN, in solution, steady state; Scatchard analysis and non-linear curve fit.
In test [3] the target is contortrostatin (CN), native (Agkistrodon contortrix contortrix). Described as above.
The target of test [4] is vicrostatin (VCN) (Agkistrodon contortrix contortrix (southern copperhead venom gland cDNA library) | not stated). The experiment in a line: fluorescence polarisation. In general terms: Fluorescence polarisation rises when a labelled molecule tumbles more slowly, as on binding a larger partner.
For test [5], the target named is contortrostatin (CN), native (Agkistrodon contortrix contortrix). The experiment in a line: fluorescence polarisation.
In test [6] the target is activated platelet integrin αIIbβ3 (human (endogenous in platelets)) (UniProt P08514). This is another data set of the same source.

Like-named read-outs stand apart in the source and are kept apart here.

For orientation: Kd means the free concentration of one partner at which half of the binding sites on the other are occupied at equilibrium, for simple one-to-one binding. A higher Kd goes with lower affinity.

Sequence of UniProt P08514 (P08514 32-1039, chain 1 of 2): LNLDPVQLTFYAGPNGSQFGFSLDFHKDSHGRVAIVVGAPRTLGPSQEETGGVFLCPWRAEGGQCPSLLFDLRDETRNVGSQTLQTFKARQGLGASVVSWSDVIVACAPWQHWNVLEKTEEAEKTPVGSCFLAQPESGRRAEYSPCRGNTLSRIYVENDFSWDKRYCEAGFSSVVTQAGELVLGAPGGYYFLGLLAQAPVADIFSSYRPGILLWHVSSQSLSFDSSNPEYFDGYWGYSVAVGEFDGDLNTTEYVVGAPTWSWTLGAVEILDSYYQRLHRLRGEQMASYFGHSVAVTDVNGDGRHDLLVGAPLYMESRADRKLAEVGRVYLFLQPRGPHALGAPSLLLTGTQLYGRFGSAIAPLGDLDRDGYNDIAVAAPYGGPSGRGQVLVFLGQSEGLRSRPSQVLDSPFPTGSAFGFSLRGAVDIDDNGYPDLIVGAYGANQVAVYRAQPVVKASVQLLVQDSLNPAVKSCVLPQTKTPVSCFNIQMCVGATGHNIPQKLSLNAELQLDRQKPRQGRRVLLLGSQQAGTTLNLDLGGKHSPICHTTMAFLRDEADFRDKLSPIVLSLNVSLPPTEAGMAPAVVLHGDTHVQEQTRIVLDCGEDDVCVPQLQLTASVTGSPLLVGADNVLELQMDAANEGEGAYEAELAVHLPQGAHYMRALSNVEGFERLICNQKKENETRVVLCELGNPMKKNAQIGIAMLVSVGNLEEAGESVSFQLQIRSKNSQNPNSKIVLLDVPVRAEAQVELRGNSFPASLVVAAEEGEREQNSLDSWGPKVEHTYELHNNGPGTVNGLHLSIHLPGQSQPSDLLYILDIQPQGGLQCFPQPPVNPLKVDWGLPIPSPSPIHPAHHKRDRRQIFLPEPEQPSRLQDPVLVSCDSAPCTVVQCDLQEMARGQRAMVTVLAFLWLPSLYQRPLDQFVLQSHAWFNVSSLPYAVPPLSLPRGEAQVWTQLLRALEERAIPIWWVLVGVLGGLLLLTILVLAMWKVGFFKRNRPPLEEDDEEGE
Sequence of UniProt P08514 (P05106 27-788, chain 2 of 2, further chain): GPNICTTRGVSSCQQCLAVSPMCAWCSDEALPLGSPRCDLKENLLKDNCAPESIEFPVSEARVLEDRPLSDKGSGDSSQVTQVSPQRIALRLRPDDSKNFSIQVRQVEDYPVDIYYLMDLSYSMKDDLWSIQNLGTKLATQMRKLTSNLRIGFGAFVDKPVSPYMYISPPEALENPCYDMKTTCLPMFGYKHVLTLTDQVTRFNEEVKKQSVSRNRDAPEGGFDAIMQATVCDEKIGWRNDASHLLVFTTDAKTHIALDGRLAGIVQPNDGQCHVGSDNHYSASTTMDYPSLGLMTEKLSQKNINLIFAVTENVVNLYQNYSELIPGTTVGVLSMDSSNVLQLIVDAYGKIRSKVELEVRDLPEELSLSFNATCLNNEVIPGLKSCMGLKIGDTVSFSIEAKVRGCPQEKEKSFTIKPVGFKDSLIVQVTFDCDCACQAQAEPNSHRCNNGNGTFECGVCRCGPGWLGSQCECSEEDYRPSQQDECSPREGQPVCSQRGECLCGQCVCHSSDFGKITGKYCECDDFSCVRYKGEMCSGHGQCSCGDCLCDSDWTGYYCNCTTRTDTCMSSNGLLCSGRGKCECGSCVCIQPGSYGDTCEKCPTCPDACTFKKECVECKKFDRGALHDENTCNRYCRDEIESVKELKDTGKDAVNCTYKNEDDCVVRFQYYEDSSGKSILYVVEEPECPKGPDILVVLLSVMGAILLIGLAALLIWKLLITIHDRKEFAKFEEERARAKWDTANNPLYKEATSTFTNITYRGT

“contortrostatin (CN), native (natural protein)” yielded an IC50 of inhibition of ADP-induced platelet aggregation in human platelet-rich plasma (blocks fibrinogen binding to αIIbβ3) in test [1] of 60 nM.

With “purified soluble integrin αvβ3 (from UniProt P06756 31-1048; P05106 27-718) (receptor)”, the values for the dissociation constant (Kd) in test [2] and in test [3] were 7.4 nM and 6.6 nM, respectively.

As to “purified soluble integrin αvβ5 (from UniProt P06756 31-1048; P18084 24-719) (receptor)”, the Kd in test [4] was 41.2 nM; in test [5] it was 19.5 nM.

For “soluble recombinant integrin α5β1 (from UniProt P08648 42-1049; P05556 21-728) (receptor)”, the Kd in test [4] was determined as 15.2 nM; in test [5], 191 nM.

In turn, vicrostatin (VCN) (ligand) showed an IC50 of inhibition of ADP-induced platelet aggregation in human platelet-rich plasma (blocks fibrinogen binding to αIIbβ3) in test [6] of 60 nM.
